Laboratory results reported in the supplement of paper PMC6757056.
± gives the standard deviation of the averaged measurements.

B1: library; a variant is named by its letters at N, in order (parent)
chain: GCUGUCACCGAGAAACUGUGAAGUAUAUCUUAAACCUGGGCACUUAAAAGAUAUAUGGAGUUAGUAGUGCAACCUGCUCGGUCUGAUGAGUCCNNNNNNGGACGAAACAGC

What was measured:
cyclic di-GMP [1] = variants of: B1; test: normalized RNA/DNA level without ligand (relative to sTRSVctl = 100) (log10 (% of sTRSVctl)); HEK293T; ligand: cyclic di-GMP (c-di-GMP-II aptamer); higher = less ribozyme self-cleavage, higher mRNA level; settings: reporter: mCherry (pCS4076), ligand present: no
How it was run: (§1)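 Library plasmids carrying ribozyme switches linked to mCherry, or to eGFP in some ligand experiments, were transfected into HEK293T at 4 µg per 6-well well, with any ligand added 1 h earlier. Seventy-two hours on, total RNA was extracted with EDTA and reverse-transcribed, amplified, barcoded and sequenced. RNA level was RNA over DNA reads normalized to a spiked-in non-cleaving sequence or to the top sequences, then scaled and log-transformed. The top set was 25 sequences, the transform was ×100 and log10, and sequences needed ≥100 DNA reads.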

cyclic di-GMP [2] = variants of: B1; test: normalized RNA/DNA level with ligand (relative to sTRSVctl = 100) (log10 (% of sTRSVctl)); HEK293T; ligand: cyclic di-GMP (c-di-GMP-II aptamer); ligand concentration (+) RNA-Seq: 1 mM; higher = less ribozyme self-cleavage, higher mRNA level; settings: reporter: mCherry (pCS4076), ligand present: yes
How it was run: as §1

| Variant | normalized RNA/DNA level without ligand (log10) (cyclic di-GMP [1]) | normalized RNA/DNA level with ligand (log10) (cyclic di-GMP [2]) |
| --- | --- | --- |
| GUUGAU | 1.61 ± 0.033 | 1.76 ± 0.14 |
| GUUGAA | 1.44 ± 0.083 | 1.65 ± 0.12 |
| AUGUGC | 1.6033 ± 0.00051 | 1.77 ± 0.14 |
| AUGUGG | 1.59 ± 0.051 | 1.72 ± 0.081 |
| AUGUGA | 1.44 ± 0.082 | 1.65 ± 0.11 |
| GUUAGU | 1.66 ± 0.017 | 1.8 ± 0.13 |
| GUUAGC | 1.72 ± 0.02 | 1.85 ± 0.12 |
| UUUAUG | 1.707 ± 0.0064 | 1.84 ± 0.11 |
| UUUAUC | 1.74 ± 0.056 | 1.83 ± 0.12 |
| UUUAUU | 1.72 ± 0.084 | 1.88 ± 0.15 |
| UUUAUA | 1.7 ± 0.035 | 1.84 ± 0.1 |
| AUGCGG | 1.74 ± 0.024 | 1.82 ± 0.098 |
| AUGCGU | 1.679 ± 0.011 | 1.79 ± 0.099 |
| CUUCUU | 1.5858 ± 0.00043 | 1.75 ± 0.2 |
| CUUCUG | 1.78 ± 0.061 | 1.85 ± 0.057 |
| CUUCUC | 1.77 ± 0.049 | 1.86 ± 0.14 |
| AUGGGC | 1.626 ± 0.015 | 1.79 ± 0.16 |
| AUGGGG | 1.56 ± 0.12 | 1.68 ± 0.08 |
| AUGGGA | 1.4 ± 0.12 | 1.56 ± 0.074 |

| Variant | normalized RNA/DNA level without ligand (log10) (cyclic di-GMP [1]) | normalized RNA/DNA level with ligand (log10) (cyclic di-GMP [2]) |
| --- | --- | --- |
| AUUAUU | 1.63 ± 0.042 | 1.79 ± 0.1 |
| AUUAUA | 1.58 ± 0.03 | 1.74 ± 0.095 |
| AUUAUG | 1.58 ± 0.022 | 1.77 ± 0.1 |
| UUGGUU | 1.7 ± 0.027 | 1.84 ± 0.097 |
| UUGGUC | 1.77 ± 0.0052 | 1.86 ± 0.11 |
| UUGGUG | 1.6 ± 0.1 | 1.78 ± 0.11 |
| UUGGUA | 1.45 ± 0.084 | 1.73 ± 0.11 |
| CUUGCC | 1.82 ± 0.019 | 1.9 ± 0.077 |
| CUUGCA | 1.66 ± 0.018 | 1.77 ± 0.1 |
| UUGUCA | 1.77 ± 0.045 | 1.9 ± 0.1 |
| UUGUCU | 1.8 ± 0.03 | 1.92 ± 0.086 |
| UUGUCC | 1.8 ± 0.026 | 1.89 ± 0.098 |
| UUGUCG | 1.79 ± 0.032 | 1.89 ± 0.05 |
| AUUAAC | 1.655 ± 0.015 | 1.76 ± 0.15 |
| AUUAAG | 1.55 ± 0.041 | 1.75 ± 0.14 |
| AUUAAU | 1.674 ± 0.015 | 1.8 ± 0.12 |
| CUUAAC | 1.679 ± 0.014 | 1.8 ± 0.079 |
| CUUAAG | 1.69 ± 0.05 | 1.89 ± 0.079 |
| CUGGUU | 1.67 ± 0.025 | 1.83 ± 0.08 |

| Variant | normalized RNA/DNA level without ligand (log10) (cyclic di-GMP [1]) | normalized RNA/DNA level with ligand (log10) (cyclic di-GMP [2]) |
| --- | --- | --- |
| CUGGUC | 1.68 ± 0.032 | 1.8 ± 0.14 |
| CUGGUG | 1.39 ± 0.017 | 1.58 ± 0.16 |
| CUGGUA | 1.38 ± 0.086 | 1.59 ± 0.076 |
| CUGUGC | 1.739 ± 0.013 | 1.85 ± 0.095 |
| CUGUGG | 1.7 ± 0.048 | 1.85 ± 0.11 |
| CUGUGU | 1.75 ± 0.027 | 1.86 ± 0.11 |
| CUGUGA | 1.54 ± 0.075 | 1.77 ± 0.081 |
| CUUACG | 1.82 ± 0.085 | 1.87 ± 0.19 |
| CUUACC | 1.77 ± 0.049 | 1.86 ± 0.15 |
| CUUACU | 1.59 ± 0.079 | 1.79 ± 0.048 |
| AUUACA | 1.63 ± 0.027 | 1.79 ± 0.071 |
| AUUACC | 1.73 ± 0.057 | 1.88 ± 0.052 |
| AUUACU | 1.73 ± 0.029 | 1.86 ± 0.081 |
| UUGGGC | 1.72 ± 0.023 | 1.84 ± 0.091 |
| UUGGGU | 1.68 ± 0.024 | 1.84 ± 0.088 |
| UUGGGA | 1.57 ± 0.1 | 1.72 ± 0.1 |
| UUGGGG | 1.61 ± 0.057 | 1.78 ± 0.094 |
| CUGCGU | 1.723 ± 0.013 | 1.84 ± 0.1 |
| AUGGAG | 1.55 ± 0.1 | 1.68 ± 0.084 |
